B1: scFv; the commonest letter at each place (parent)
chain 1: EVKLDETGGGLVQPGRPMKLSCVASGFTFSDYWMNWVRQSPEKGLEWVAQIRNKPYNYETYYSDSVKGRFTISRDDSKSSVYLQMNNLRVEDMGIYYCTGSYYGMDYWGQGTSVTVS
chain 2: DVVMTQTPLSLPVSLGDQASISCRSSQSLVHSNGNTYLRWYLQKPGQSPKVLIYKVSNRFSGVPDRFSGSGSGTDFTLKISRVEAEDLGVYFCSQSTHVPWTFGGGTKLEIK

Legend:
fluorescein = variants of: B1; experiment: Kd (Tite-Seq); conditions: with fluorescein; format: scFv 4-4-20, heavy + light
[1] = variants of: B1; experiment: yeast surface expression (ratio to wild type); higher = more expressed; conditions: format: scFv 4-4-20, heavy + light

Row | Kd (fluorescein) [µM] | Variant | yeast surface expression [1]
1 | ≥ 10 | chain 1 D31F N35I | 1.11
2 | 0.0434 | chain 1 F29S N35R | 0.922
3 | ≥ 10 | chain 1 W33T N35Q | 0.887
4 | ≥ 10 | chain 1 Y103V G109L | 0.247
5 | ≥ 10 | chain 1 T28C D31F M34A | 0.672
6 | ≥ 10 | chain 1 W33E N35G | 1.05
7 | ≥ 10 | chain 1 G104A M105P | 0.375
8 | ≥ 10 | chain 1 Y103A D106I W108P | 0.344
9 | ≥ 10 | chain 1 D106L G109C | 0.166
10 | ≥ 10 | chain 1 G100V W108N | 0.468
11 | ≥ 10 | chain 1 S30V D31V W36E | 1.33
12 | ≥ 10 | chain 1 S101T M105S | 0.699
13 | 0.00352 | chain 1 Y32F | 0.989
14 | ≥ 10 | chain 1 D31Y W33H | 0.579
15 | ≥ 10 | chain 1 W36S V37D | 1.34
16 | 0.122 | chain 1 Y107V | 1.15
17 | ≥ 10 | chain 1 G104A D106T | 0.78
18 | ≥ 10 | chain 1 M105A | 1.01
19 | ≥ 10 | chain 1 N35L W36I | 0.256
20 | ≥ 10 | chain 1 S101E G104S | 0.804
21 | 0.00468 | chain 1 G100I W108M | 0.946
22 | 0.0221 | chain 1 F29A | 0.974
23 | ≥ 10 | chain 1 G104A | 0.693
24 | ≥ 10 | chain 1 W33E | 1.05
25 | 0.195 | chain 1 Y102H Y103E | 1.17
26 | ≤ 0.000316 | chain 1 W108V | 0.831
27 | ≥ 10 | chain 1 Y107E W108K | 0.513

More lines, now with the values behind:

Row | Variant | Kd (fluorescein) [µM] | yeast surface expression [1]
28 | chain 1 Y103W D106T | ≥ 10 | 0.875
29 | chain 1 S30D V37F | 4.37 | 0.942
30 | chain 1 T28W D31F | 0.116 | 0.553
31 | chain 1 S30Y D31A N35A | ≥ 10 | 0.451
32 | chain 1 M105A G109F | ≥ 10 | 0.203
33 | chain 1 G100Q Y107L G109E | ≥ 10 | 0.226
34 | chain 1 G104Y M105N | ≥ 10 | 1.13
35 | chain 1 Y103V Y107M | ≥ 10 | 0.53
36 | chain 1 Y102Q G104T | ≥ 10 | 0.546
37 | chain 1 G100V S101M | ≥ 10 | 0.712
38 | chain 1 S30M D31S | 0.00265 | 0.671
39 | chain 1 S101G D106A | 0.0457 | 0.675
40 | chain 1 G104S Y107T | ≥ 10 | 0.831
41 | chain 1 G100D D106W | ≥ 10 | 0.254
42 | chain 1 T28M | 0.00265 | 1.02
43 | chain 1 D31Q | 0.00258 | 0.877
44 | chain 1 Y103R | 0.00444 | 0.971

Row | Variant | Kd (fluorescein) [µM] | yeast surface expression [1]
45 | chain 1 D106F | ≥ 10 | 0.325
46 | chain 1 D106P | ≥ 10 | 0.635
47 | chain 1 W33G M34I | ≥ 10 | 0.433
48 | chain 1 S101Y D106E | ≥ 10 | 0.627
49 | chain 1 Y102D | ≥ 10 | 1.16
50 | chain 1 D31N Y32L | 0.00546 | 0.878
51 | chain 1 F29D D31E | ≥ 10 | 1.01
52 | chain 1 W36Q V37T | ≥ 10 | 0.396
53 | chain 1 F29D V37D | ≥ 10 | 0.557
54 | chain 1 T28E F29Y | 0.00468 | 1.01
55 | chain 1 S30T M34E | 0.345 | 0.314
56 | chain 1 Y32D N35Y | ≥ 10 | 0.498
57 | chain 1 Y103F M105T | ≥ 10 | 1.01
58 | chain 1 M34I V37I | 0.00827 | 0.831
59 | chain 1 Y103W G109A | ≥ 10 | 0.557
60 | chain 1 Y32S W33S | ≥ 10 | 0.838
61 | chain 1 Y107E W108E | ≥ 10 | 0.485
